Test results: patent US11332512B2, “Peptides and combination of peptides for use in immunotherapy against various tumors” (Immatics Biotechnologies GmbH, priority 2015, dated 2022)

Molecular target: HLA-A*02:01 (Homo sapiens, UniProt P04439, D140Y/D185E/D98H/E176V/E277Q/G131W/G231S/I119V/I121R/I166T/I218V/L300P/L318F/N151K/N90K/P208A/P217A/Q86G/Q94H/R138H/R169H/T345S)
Experiment: MHC binding assay: UV-ligand exchange with beta2m ELISA (peptide exchange yield)
Conditions: binding to HLA-A*02:01, β2m ELISA
Description: Candidate peptides for T cell based therapies according to the present invention were further tested for their MHC binding capacity (affinity). The individual peptide-MHC complexes were produced by UV-ligand exchange, where a UV-sensitive peptide is cleaved upon UV-irradiation, and exchanged with the peptide of interest as analyzed. Only peptide candidates that can effectively bind and stabilize the peptide-receptive MHC molecules prevent dissociation of the MHC complexes. To determine the yield of the exchange reaction, an ELISA was performed based on the detection of the light chain (β2m) of stabilized MHC complexes. The assay was performed as generally described in Rodenko et al. (Rodenko et al., 2006).
96 well MAXISorp plates (NUNC) were coated over night with 2 ug/ml streptavidin in PBS at room temperature, washed 4× and blocked for 1 h at 37° C. in 2% BSA containing blocking buffer. Refolded HLA-A*02:01/MLA-001 monomers served as standards, covering the range of 15-500 ng/ml. Peptide-MHC monomers of the UV-exchange reaction were diluted 100 fold in blocking buffer. Samples were incubated for 1 h at 37° C., washed four times, incubated with 2 ug/ml HRP conjugated anti-β2m for 1 h at 37° C., washed again and detected with TMB solution that is stopped with […]. Absorption was measured at 450 nm. Candidate peptides that show a high exchange yield (preferably higher than 50%, most preferred higher than 75%) are generally preferred for a generation and production of antibodies or fragments thereof, and/or T cell receptors or fragments thereof, as they show sufficient avidity to the MHC molecules and prevent dissociation of the MHC complexes.

Row | Substance | Peptide exchange (MHC class I binding score, peptide exchange yield)
1 | 214 (ALFETLIQL; listed as Homo sapiens) [compound 214] | +++ (= ≥50% = +++)
2 | 10 (QLIEKNWLL; listed as Homo sapiens) [compound 10] | +++ (= ≥50% = +++)
3 | 12 (RLLDPKTIFL; listed as Homo sapiens) [compound 12] | +++ (= ≥50% = +++)
4 | 175 (SLLDLVQSL; listed as Homo sapiens) [compound 175] | +++ (= ≥50% = +++)
5 | 148 (YLILSSHQL; listed as Homo sapiens) [compound 148] | +++ (= ≥50% = +++)
6 | 22 (LMYPYIYHV; listed as Homo sapiens) [compound 22] | +++ (= ≥50% = +++)
7 | 277 (KLQEELNKV; listed as Homo sapiens) [compound 277] | +++ (= ≥50% = +++)
8 | 262 (LLLEAVWHL; listed as Homo sapiens) [compound 262] | +++ (= ≥50% = +++)
9 | 3 (RVIDDSLVVGV; listed as Homo sapiens) [compound 3] | +++ (= ≥50% = +++)
10 | 166 (LLGDSSFFL; listed as Homo sapiens) [compound 166] | +++ (= ≥50% = +++)
11 | 23 (ALLSPLSLA; listed as Homo sapiens) [compound 23] | +++ (= ≥50% = +++)
12 | 7 (ALLQALMEL; listed as Homo sapiens) [compound 7] | +++ (= ≥50% = +++)
13 | 16 (SLADLSLLL; listed as Homo sapiens) [compound 16] | +++ (= ≥50% = +++)
14 | 63 (KLLPMVIQL; listed as Homo sapiens) [compound 63] | +++ (= ≥50% = +++)
15 | 165 (SLLDYEVSI; listed as Homo sapiens) [compound 165] | +++ (= ≥50% = +++)
16 | 76 (FTAEFLEKV; listed as Homo sapiens) [compound 76] | +++ (= ≥50% = +++)
17 | 158 (YLDPLWHQL; listed as Homo sapiens) [compound 158] | +++ (= ≥50% = +++)
18 | 180 (RLYEEEIRI; listed as Homo sapiens) [compound 180] | +++ (= ≥50% = +++)
19 | 265 (FLLDKPQDLSI; listed as Homo sapiens) [compound 265] | +++ (= ≥50% = +++)
20 | 228 (SLLELDGINLRL; listed as Homo sapiens) [compound 228] | +++ (= ≥50% = +++)
21 | 130 (QLYGSAITL; listed as Homo sapiens) [compound 130] | +++ (= ≥50% = +++)
22 | 150 (VLLDMVHSL; listed as Homo sapiens) [compound 150] | +++ (= ≥50% = +++)
23 | 213 (ILAVDGVLSV; listed as Homo sapiens) [compound 213] | +++ (= ≥50% = +++)
24 | 271 (VLIEYNFSI; listed as Homo sapiens) [compound 271] | +++ (= ≥50% = +++)
25 | 162 (GLLGNLLTSL; listed as Homo sapiens) [compound 162] | +++ (= ≥50% = +++)
